Experimental data as given in US20220073922, “Aptamers and use thereof” (Aptitude Medical Systems, Inc., published 2022).

Experiments:
[1] = target: T1, VEGF-165 (VEGFA isoform 165) (Homo sapiens); test: flow; PBSMCT, 37 C; conditions: chain copies: 2 (inferred); label: biotin; stem-loop with bulges
T1 chain: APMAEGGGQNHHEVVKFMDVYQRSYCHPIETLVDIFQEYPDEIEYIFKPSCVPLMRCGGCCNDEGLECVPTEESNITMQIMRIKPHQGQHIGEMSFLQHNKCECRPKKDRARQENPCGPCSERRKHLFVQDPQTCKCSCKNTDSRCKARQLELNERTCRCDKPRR
Procedure: (§1) Truncated and modified variants of the anti-VEGF aptamers of the present disclosure were prepared by LGC Biosearch Technologies (Novato, Calif.), and their binding affinity to corresponding targets were examined. Briefly, the equilibrium binding constants of the enriched libraries were measured using magnetic bead partitioning. Biotinylated anti-VEGF aptamers were conjugated to the 1 μm streptavidin-coated MyOne Streptavidin Cl magnetic beads (Thermo Fisher Scientific, 65002). Binding assays were performed by incubating fixed concentration of anti-VEGF aptamer (0.01 nM) and target protein at concentrations ranging from 10⁻¹² to 10⁻⁸ M in PBSMCT buffer (DPBS, pH 7.2 with 2.5 mM MgCl₂, 1 mM CaCl₂) and 0.01% TWEEN-20) at 37° C. for 90 minutes. Bound target protein was partitioned by magnetic separation and subsequently labeled via fluorescent anti-VEGF or anti-His-tag antibody. The fraction of anti-VEGF aptamer bound was quantified by flow cytometry (BD Accuri C6 Plus). Raw binding data were corrected for nonspecific background binding of target protein to empty magnetic beads. The fraction of bound anti-VEGF aptamer was plotted as a function of protein concentration and a non-linear curve-fitting algorithm (Langmuir one-site binding model) was used to extract equilibrium binding constants (KD values) from the data (FIG. 1).

[2] = target: T2, VEGF-121 (VEGFA isoform 121) (Homo sapiens, UniProt P15692 SEQ:1-121); test: flow; PBSMCT, 37 C; conditions: chain copies: 2 (inferred); label: biotin; stem-loop with bulges
Procedure: as §1

[3] = target: T1, VEGF-165 (VEGFA isoform 165); test: competition; blocks VEGF-R1 and VEGF-R2 binding; PBSMCT, 37 C; conditions: chain copies: 2 (inferred); label: biotin; stem-loop with bulges
Procedure: (§2) Three different recombinant VEGF receptors (two VEGF-R1 and one VEGF-R2) were tested (R&D Systems, 3516-FL, 321-FL, and 357-KD). […] VEGF-bound receptors and anti-VEGF aptamers were partitioned by magnetic separation, and the VEGF-bound VEGF receptors were subsequently labeled via a fluorescent anti-human antibody. The fraction of VEGF-bound receptor was quantified by flow cytometry (BD Accuri C6 Plus). Raw binding data were corrected for nonspecific background binding and normalized to the fluorescence intensity from the sample with 1 nM VEGF receptor but without anti-VEGF aptamer competition. The fraction of bound receptor was plotted as a function of anti-VEGF aptamer concentration and a non-linear curve-fitting algorithm (dose-response inhibition) was used to extract IC₅₀ values from the data (FIG. 2).

[4] = target: T2, VEGF-121 (VEGFA isoform 121); test: as above; conditions: chain copies: 2 (inferred); label: biotin; stem-loop with bulges
Procedure: as §2

[5] = target: Angiopoietin-2 (Ang2) (Mus musculus, UniProt O35608 O35608:19-496); test: flow; PBSMCT, 37 C; conditions: tags: R&D Systems 7186-AN; label: biotin
Angiopoietin-2 (Ang2) (Mus musculus, UniProt O35608 O35608:19-496), sequence (O35608 19-496, one chain of several): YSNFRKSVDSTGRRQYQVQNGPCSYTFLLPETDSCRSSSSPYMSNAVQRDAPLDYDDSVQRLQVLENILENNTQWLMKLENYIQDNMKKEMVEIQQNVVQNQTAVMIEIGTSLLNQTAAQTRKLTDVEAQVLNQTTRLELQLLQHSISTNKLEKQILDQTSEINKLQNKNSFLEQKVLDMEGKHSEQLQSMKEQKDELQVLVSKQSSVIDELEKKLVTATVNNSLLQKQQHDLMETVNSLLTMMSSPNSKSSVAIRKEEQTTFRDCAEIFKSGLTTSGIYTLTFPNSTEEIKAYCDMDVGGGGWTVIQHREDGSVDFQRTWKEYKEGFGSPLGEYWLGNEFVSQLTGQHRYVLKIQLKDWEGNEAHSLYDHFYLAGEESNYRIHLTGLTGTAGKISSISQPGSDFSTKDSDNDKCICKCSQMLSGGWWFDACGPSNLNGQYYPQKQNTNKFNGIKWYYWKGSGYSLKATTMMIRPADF
Procedure: (§3) Various mutations and truncated variants of a representative anti-Ang2 aptamer (AMS0525) were obtained and their binding affinity to Ang2 were measured using magnetic bead partitioning. Biotinylated anti-Ang2 aptamers were conjugated to the 1 μm streptavidin-coated MyOne Streptavidin Cl magnetic beads (Thermo Fisher Scientific, 65002). Binding assays were performed by incubating fixed concentration of aptamer (0.01 nM) and Ang2 protein at concentrations ranging from 10⁻¹² to 10⁻⁸ M in PBSMCT buffer (DPBS, pH 7.2 with 2.5 mM MgCl₂, 1 mM CaCl₂) and 0.01% TWEEN-20) at 37° C. for 90 minutes. Bound target protein was partitioned by magnetic separation and subsequently labeled via fluorescent anti-His-tag antibody. The fraction of anti-Ang2 aptamer bound was quantified by flow cytometry (BD Accuri C6 Plus). Raw binding data were corrected for nonspecific background binding of target protein to empty magnetic beads. The fraction of bound anti-Ang2 aptamer was plotted as a function of protein concentration and a non-linear curve-fitting algorithm (Langmuir one-site binding model) was used to extract equilibrium binding constants (KD values) from the data (FIG. 4A).

[6] = target: T3, Angiopoietin-2 (Ang2) (Homo sapiens, UniProt O15123 O15123:19-496); test: flow; PBSMCT, 37 C; conditions: tags: His tag, R&D Systems 623-AN; label: biotin
T3 sequence (O15123 19-496, one chain of several): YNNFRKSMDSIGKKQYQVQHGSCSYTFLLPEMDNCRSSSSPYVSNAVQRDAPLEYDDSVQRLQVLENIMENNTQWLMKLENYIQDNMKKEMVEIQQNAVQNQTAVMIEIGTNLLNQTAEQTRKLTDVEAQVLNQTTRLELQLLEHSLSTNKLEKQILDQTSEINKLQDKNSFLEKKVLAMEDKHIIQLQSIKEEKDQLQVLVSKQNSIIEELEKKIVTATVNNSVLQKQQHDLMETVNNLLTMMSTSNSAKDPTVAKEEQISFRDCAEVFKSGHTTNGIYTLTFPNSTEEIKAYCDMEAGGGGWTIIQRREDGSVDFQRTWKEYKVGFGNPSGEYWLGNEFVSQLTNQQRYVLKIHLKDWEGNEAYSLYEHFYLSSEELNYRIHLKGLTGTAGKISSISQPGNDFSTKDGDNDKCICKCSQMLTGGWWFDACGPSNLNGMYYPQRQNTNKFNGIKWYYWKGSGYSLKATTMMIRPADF
Procedure: as §3

[7] = target: Angiopoietin-1 (Ang1) (Homo sapiens, UniProt Q15389 Q15389:16-498); test: flow; does not recognize human Ang1; conditions: tags: R&D Systems 923-AN; label: biotin
Angiopoietin-1 (Ang1), sequence (Q15389 16-498, one chain of several): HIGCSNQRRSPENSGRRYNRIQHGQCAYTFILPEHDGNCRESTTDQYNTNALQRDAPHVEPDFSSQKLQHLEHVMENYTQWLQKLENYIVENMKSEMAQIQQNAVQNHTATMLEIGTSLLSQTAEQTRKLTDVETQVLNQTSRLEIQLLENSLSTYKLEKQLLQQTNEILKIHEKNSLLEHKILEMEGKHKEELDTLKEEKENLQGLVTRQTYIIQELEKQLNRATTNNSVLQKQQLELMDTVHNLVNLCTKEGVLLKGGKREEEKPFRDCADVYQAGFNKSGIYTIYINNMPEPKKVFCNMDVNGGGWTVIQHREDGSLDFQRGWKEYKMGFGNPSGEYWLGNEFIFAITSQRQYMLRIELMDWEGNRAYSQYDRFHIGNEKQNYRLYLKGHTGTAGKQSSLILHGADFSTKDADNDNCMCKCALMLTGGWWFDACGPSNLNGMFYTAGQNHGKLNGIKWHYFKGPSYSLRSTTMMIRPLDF

[8] = target: T3, Angiopoietin-2 (Ang2); test: competition; blocks Ang2-Tie2 binding; PBSMCT, 37 C; conditions: tags: His tag, R&D Systems 623-AN; label: biotin
Procedure: (§4) Ang2-bound Tie2 and anti-Ang2 aptamers were partitioned by magnetic separation, and the Ang2-bound Tie2 were subsequently labeled via a fluorescent anti-human antibody. The fraction of Ang2-bound receptor was quantified by flow cytometry (BD Accuri C6 Plus). Raw binding data were corrected for nonspecific background binding and normalized to the fluorescence intensity from the sample with 1 nM Tie2 but without anti-Ang2 aptamer competition. The fraction of bound receptor was plotted as a function of anti-Ang2 aptamer concentration and a non-linear curve-fitting algorithm (dose-response inhibition) was used to extract IC₅₀ values from the data (FIG. 4C).

[9] = target: T1, VEGF-165 (VEGFA isoform 165); test: flow; PBSMCT, 37 C; Table 7 gives a different value; conditions: chain copies: 2 (inferred); label: biotin; stem-loop with bulges
Procedure: as §1

[10] = target: T2, VEGF-121 (VEGFA isoform 121); test: as above; conditions: chain copies: 2 (inferred); label: biotin; stem-loop with bulges
Procedure: as §1

[11] = target: T1, VEGF-165 (VEGFA isoform 165); test: flow; PBSMCT, 37 C; Table 6 gives a different value; conditions: chain copies: 2 (inferred); label: biotin; stem-loop with bulges
Procedure: as §1

[12] = target: T2, VEGF-121 (VEGFA isoform 121); test: as above; conditions: chain copies: 2 (inferred); label: biotin; stem-loop with bulges
Procedure: as §1

[13] = target: T2, VEGF-121 (VEGFA isoform 121); test: flow; conditions: chain copies: 2 (inferred); label: 5'-biotin
[14] = target: T3, Angiopoietin-2 (Ang2); test: flow; conditions: tags: His tag, R&D Systems 623-AN; label: 5'-biotin
[15] = target: T3, Angiopoietin-2 (Ang2); test: competition; blocks Ang2-Tie2; conditions: tags: His tag, R&D Systems 623-AN; label: 5'-biotin
Procedure: as §4

In the case of CGCUAGAUGGCUAACACUAUUGUGGAGAUGCACUAGCG (ssRNA, 2'-F all positions) [AMS0427], the Kd [1] is reported as 0.091 nM, the Kd [2] is reported as 0.045 nM and the IC50 [3] is reported as about 0.1 nM. For the same binder, the IC50 [4] was about 0.1 nM.

With CGCAUAGAUAAGCCAACAAACGUACAUUCUCUGUUAGUAUUUUCUGCG (ssRNA, 2'-F all positions) [AMS0526] the Kd [5] was under 0.1 nM, the Kd [6] was 0.032 nM and the binding result [7] was “no binding”. For the same binder, the IC50 [8] was 0.0839 nM.

In the case of CGUGGAGAUGCAUUCUGUCGAAGAUUGGCUAACACG (ssRNA, 2'-F all positions) [AMS0426], the IC50 [3] is reported as about 0.1 nM, the IC50 [4] is reported as about 0.1 nM and the Kd [9] is reported as 0.349 nM. The Kd [10] was 0.214 nM, the Kd [11] was 0.151 nM and the Kd [12] was 0.086 nM.

B1: AMSB103 (ssRNA)
RNA: CGCUAGAUGGCUAACACUAUUGUGGAGAUGCACUAGCGCGCAUAGAUAAGCCAACAAACGUACAUUCUCUGUUAGUAUUUUCUGCG
modifications: 2'-F all positions
B1 showed a Kd [13] of 0.039 nM, a Kd [14] of 0.029 nM and an IC50 [15] of under 0.1 nM.
